The target of test [1] is T1, human ROR1 expressed on the cell surface (human, UniProt Q01973 30-937).
T1 construct: whole, on cells; also called cell surface-expressed ROR1 antigen; ROR1 on JeKo-1, Mino, CHO-human ROR1, MC38-human ROR1 and other cancer cell lines
In words: flow cytometry on H1437 cells (lung cancer), C2E3 IgG, FITC anti-human Fc detection. On the procedure: (§1) FACS analysis (FACSCalibur, BD Biosciences) was used to analyze the binding of the anti-ROR1 antibody of the present invention to ROR1 in the above cell lines.
(§2) Specifically, the respective cell lines were dissociated and washed in PBS, then the numbers of cells were counted and adjusted to 2×10⁵ cells/200 PBS. Then, they were treated with 10 /mL of the antibody of clone name C2E3 of the ROR1 monoclonal antibodies prepared in Embodiment 3, and reacted for 1 hour at 4° C. After the reaction, the cells were washed in PBS, then FITC-marked constant region (Fc) specific antibody (Goat anti-human IgG FITC conjugate, Fc specific, Sigma, F9512, concentration 20 mg/ml) was suspended in 2 /1×10⁵ cells/200 PBS and reacted for 1 hour at 4° C. After reacting, the cells were washed with PBS and analyzed with the FACSCalibur equipment. The negative control was only treated with FITC-marked constant region (Fc) specific antibody. To compare the degree of ROR1 expression among the respective cancer cell lines, the quotient of dividing the shifted readings for the experimental group treated with the ROR1 monoclonal antibody (C2E3) of the present invention by the shifted readings for the control group (MFI Ratio: MFI of anti-ROR1/MFI or 2nd Ab) is indicated.
Background: In flow cytometry, cells or beads pass a laser one at a time.

In test [2] the target is T1, human ROR1 expressed on the cell surface. Put plainly: flow cytometry on Calu-6 cells (lung cancer), C2E3 IgG, FITC anti-human Fc detection. On the procedure: as §1, §2
Test [3] shares this target. Put plainly: flow cytometry on HCC1187 cells (breast cancer), C2E3 IgG, FITC anti-human Fc detection. On the procedure: as §1, §2
The target is the same in test [4]. Put plainly: flow cytometry on BT474 cells (breast cancer), C2E3 IgG, FITC anti-human Fc detection. On the procedure:
as §1, §2

For test [5], the target named is T2, recombinant human ROR1-His (Sino Biological, 13968-H08H) (human, UniProt Q01973 30-406).
T2 construct: extracellular domain; Bought protein; also called ROR1-HIS protein; not shown: His tag
Put plainly: ELISA, wells coated with human ROR1 protein (sheet: 'human ROR1'; text: ROR1-Fc or ROR1-His), IgG titrated, HRP anti-Fab detection, OD (450-650nm).

Test [6] has as its target T3, recombinant mouse ROR1 protein (Acrobiosystems, RO1-M5221) (mouse, UniProt Q9Z139 30-403).
T3 construct: Bought protein; also called mouse ROR1 antigen
In words: ELISA, wells coated with recombinant mouse ROR1 protein, IgG titrated, HRP anti-Fab detection, OD (450-650nm). (In general: In an ELISA, binding on a coated surface is turned into a signal by an enzyme label.)

Test [7] concerns the target T1, human ROR1 expressed on the cell surface. In words: flow cytometry on SNU-16 cells (gastric cancer), C2E3 IgG, FITC anti-human Fc detection. On the procedure:
as §1, §2

For test [8] the target is unchanged. In words: flow cytometry on HCC1806 cells (breast cancer), C2E3 IgG, FITC anti-human Fc detection. As to the method:
as §1, §2

For test [9] the target is unchanged. In words: flow cytometry on AGS cells (gastric cancer), C2E3 IgG, FITC anti-human Fc detection. As to the method:
as §1, §2

Test [10] shares this target. In words: flow cytometry on MDA-MB-231 cells (breast cancer), C2E3 IgG, FITC anti-human Fc detection. On the procedure: as §1, §2
For test [11] the target is unchanged. In words: flow cytometry on HCC70 cells (breast cancer), C2E3 IgG, FITC anti-human Fc detection. On the procedure:
as §1, §2

For test [12] the target is unchanged. Put plainly: flow cytometry on A549 cells (lung cancer), C2E3 IgG, FITC anti-human Fc detection. As to the method:
as §1, §2

For test [13] the target is unchanged. In words: flow cytometry on HCC1143 cells (breast cancer), C2E3 IgG, FITC anti-human Fc detection. On the procedure:
as §1, §2

The target is the same in test [14]. In words: flow cytometry on SNU-1750 cells (gastric cancer), C2E3 IgG, FITC anti-human Fc detection. As to the method: as §1, §2

From US20210069342A1 (LEGOCHEM BIOSCIENCES, published 2021) come the findings set out here.

T1 sequence (Q01973 30-937): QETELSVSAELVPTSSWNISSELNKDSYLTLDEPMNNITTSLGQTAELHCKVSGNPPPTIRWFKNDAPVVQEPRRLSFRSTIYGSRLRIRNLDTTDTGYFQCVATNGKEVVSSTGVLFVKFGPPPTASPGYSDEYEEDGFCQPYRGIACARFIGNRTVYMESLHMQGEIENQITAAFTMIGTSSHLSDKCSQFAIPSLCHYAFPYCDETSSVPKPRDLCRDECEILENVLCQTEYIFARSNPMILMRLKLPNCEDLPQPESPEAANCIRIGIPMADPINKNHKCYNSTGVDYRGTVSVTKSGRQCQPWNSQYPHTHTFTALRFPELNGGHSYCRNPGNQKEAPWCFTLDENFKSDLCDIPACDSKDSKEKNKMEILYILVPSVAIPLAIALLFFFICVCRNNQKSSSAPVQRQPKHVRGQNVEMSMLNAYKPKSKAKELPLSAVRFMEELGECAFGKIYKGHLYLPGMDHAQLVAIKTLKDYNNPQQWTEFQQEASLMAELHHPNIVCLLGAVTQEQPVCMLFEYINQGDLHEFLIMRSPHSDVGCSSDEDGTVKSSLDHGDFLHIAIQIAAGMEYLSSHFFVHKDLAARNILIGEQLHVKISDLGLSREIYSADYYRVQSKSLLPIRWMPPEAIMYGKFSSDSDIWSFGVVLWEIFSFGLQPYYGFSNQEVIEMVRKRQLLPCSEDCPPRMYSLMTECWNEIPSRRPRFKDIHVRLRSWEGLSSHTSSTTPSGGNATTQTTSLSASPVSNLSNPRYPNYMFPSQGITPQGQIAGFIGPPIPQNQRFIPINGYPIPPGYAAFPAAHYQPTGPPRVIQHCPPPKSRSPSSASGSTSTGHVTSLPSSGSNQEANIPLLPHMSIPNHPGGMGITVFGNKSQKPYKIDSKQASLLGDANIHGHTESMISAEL
T3 sequence (Q9Z139 30-403 limits assumed): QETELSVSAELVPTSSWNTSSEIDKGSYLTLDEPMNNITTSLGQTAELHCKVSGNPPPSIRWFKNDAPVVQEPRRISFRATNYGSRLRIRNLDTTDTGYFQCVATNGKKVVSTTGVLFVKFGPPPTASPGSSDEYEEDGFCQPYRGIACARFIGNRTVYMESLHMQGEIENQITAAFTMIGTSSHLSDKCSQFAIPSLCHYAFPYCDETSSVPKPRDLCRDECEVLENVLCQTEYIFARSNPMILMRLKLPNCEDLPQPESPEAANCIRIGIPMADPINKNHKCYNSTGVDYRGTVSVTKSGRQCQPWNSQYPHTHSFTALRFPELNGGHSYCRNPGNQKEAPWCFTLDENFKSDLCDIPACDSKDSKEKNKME
T2 sequence (Q01973 30-406): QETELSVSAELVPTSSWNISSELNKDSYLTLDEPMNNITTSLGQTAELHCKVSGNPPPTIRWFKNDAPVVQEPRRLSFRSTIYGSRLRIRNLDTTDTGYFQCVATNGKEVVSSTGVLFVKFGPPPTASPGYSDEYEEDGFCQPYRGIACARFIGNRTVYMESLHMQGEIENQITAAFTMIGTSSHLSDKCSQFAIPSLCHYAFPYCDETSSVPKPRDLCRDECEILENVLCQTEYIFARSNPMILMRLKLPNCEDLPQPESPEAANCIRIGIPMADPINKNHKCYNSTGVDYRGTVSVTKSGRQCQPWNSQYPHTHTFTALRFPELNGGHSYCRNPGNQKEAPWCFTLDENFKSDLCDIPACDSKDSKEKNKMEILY

B1: anti-ROR1 IgG antibody C2E3 (antibody, V domains shown)
VH: EVQLLESGGGLVQPGGSLRLSCAASGFTFSNYAMSWVRQAPGKGLEWVSSISHNSGSTYYADSVKGRFTISRDNSKNTLYLQMNSLRAEDTAVYYCAKFISARKSLGRSYSNGMDVWGQGTLVTVSS
VL: QSVLTQPPSASGTPGQRVTISCTGSSSNIGSNDVTWYQQLPGTAPKLLIYADSKRPSGVPDRFSGSKSGTSASLAISGLRSEDEADYYCGTWDYSLSGYVFGGGTKLTVLG
notes: Full IgG form (human IgG1 constant region, lambda light chain), expressed in CHO-S cells
As for B1, the “Mean Fold Ratio (MFI of anti-ROR1 / MFI of 2nd Ab)” value in test [1] worked out at 4.1; in [2], 3.3; in [3], 9.3; in [4] it was 1.7; in test [7], 2.4; in [8] it was 2.3. Besides, the “Mean Fold Ratio (MFI of anti-ROR1 / MFI of 2nd Ab)” value in test [9] amounted to 12.3; in [10], 8.8; in test [11] it was 3.8; in [12], 6; in test [13], 3.2; in [14] it was 3.9. Moreover, the concentration for a half-maximal effect (EC50 (read off the curve)) (as a rule, the concentration at which the effect is half-maximal) is roughly 0.2 nM in test [5] and roughly 0.3 nM in [6].
